The record followed here is the supplement of paper PMC9112550, “Optimization of the antimicrobial peptide Bac7 by deep mutational scanning” (BMC Biology, 2022).

For this series, the system named is Escherichia coli TOP10. Put plainly: shrunken log2 fold change of peptide-encoding DNA abundance (4.5 h post-induction vs induction); higher = less antimicrobial activity (less host growth inhibition). Conditions: time post-induction: 4.5 h; library: site-saturation at positions 5, 18, 19, 20.
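Further: peptides expressed intracellularly from a pBAD plasmid library in pooled LB shake-flask culture, induced with 0.3% L-arabinose, DNA abundance read by NGS, three biological replicates, DESeq2 with apeglm shrinkage.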

Consider RRIRQRPPRLPRPRPRPEIKPRP, for which the “shrunken log2 fold change” value is -0.342. Consider RRIRCRPPRLPRPRPRPDVCPRP, for which the “shrunken log2 fold change” value was -0.0548.

Turning to RRIRCRPPRLPRPRPRPTGYPRP, the “shrunken log2 fold change” value is -0.0363. Take RRIRKRPPRLPRPRPRPNYMPRP: the “shrunken log2 fold change” value was -0.117. For RRIRHRPPRLPRPRPRPQVWPRP, the “shrunken log2 fold change” value was -0.112. Consider RRIRHRPPRLPRPRPRPRNQPRP, for which the “shrunken log2 fold change” value was 0.0527.

RRIRIRPPRLPRPRPRPKVPPRP: the “shrunken log2 fold change” value turned out to be 0.167. Regarding RRIRVRPPRLPRPRPRPEFSPRP, the “shrunken log2 fold change” value was -0.0024. Turning to RRIRYRPPRLPRPRPRPVYRPRP, the “shrunken log2 fold change” value was -0.158. On to RRIRVRPPRLPRPRPRPYADPRP, for which the “shrunken log2 fold change” value is -0.543. In the case of RRIRQRPPRLPRPRPRPGNGPRP, the “shrunken log2 fold change” value turned out to be 0.0197. RRIRARPPRLPRPRPRPPMHPRP: the “shrunken log2 fold change” value was 0.51.

For RRIRYRPPRLPRPRPRPTQKPRP, the “shrunken log2 fold change” value was -0.0476. The figure for RRIRARPPRLPRPRPRPFYIPRP is -0.309; for RRIRERPPRLPRPRPRPCSWPRP it is -0.0335; for RRIRDRPPRLPRPRPRPTLCPRP it is 0.33. Then RRIRFRPPRLPRPRPRPQWIPRP, with -0.148; and RRIRKRPPRLPRPRPRPKDFPRP, with -0.0746; and RRIRDRPPRLPRPRPRPQQWPRP, with 0.0413. For RRIRSRPPRLPRPRPRPGWMPRP, the “shrunken log2 fold change” value is -0.0141. As to RRIRCRPPRLPRPRPRPDAVPRP, the “shrunken log2 fold change” value is 0.0365. With RRIRSRPPRLPRPRPRPNAFPRP, the “shrunken log2 fold change” value was -0.0168. RRIRQRPPRLPRPRPRPIEFPRP: the “shrunken log2 fold change” value was -1.79.

Take RRIRARPPRLPRPRPRPNNNPRP: the “shrunken log2 fold change” value is -0.471. RRIRCRPPRLPRPRPRPWNWPRP: the “shrunken log2 fold change” value is -0.0303. In the case of RRIRMRPPRLPRPRPRPQMWPRP, the “shrunken log2 fold change” value worked out at 0.635. As to RRIRSRPPRLPRPRPRPVACPRP, the “shrunken log2 fold change” value was 0.271. On to RRIRWRPPRLPRPRPRPENQPRP, for which the “shrunken log2 fold change” value is 0.353. Then RRIRERPPRLPRPRPRPMIMPRP, with -0.00163; and RRIRMRPPRLPRPRPRPSSLPRP, with -0.156; and RRIRERPPRLPRPRPRPSVFPRP, with -0.0831.

With RRIRFRPPRLPRPRPRPNVCPRP, the “shrunken log2 fold change” value is -0.0089. Turning to RRIRERPPRLPRPRPRPEADPRP, the “shrunken log2 fold change” value was 0.0032. The figure for RRIRNRPPRLPRPRPRPIIKPRP is -0.463; for RRIRGRPPRLPRPRPRPMMEPRP it is 0.372. The figure for RRIRDRPPRLPRPRPRPPSEPRP is 0.459. Consider RRIRKRPPRLPRPRPRPPFWPRP, for which the “shrunken log2 fold change” value came to 1.2. The figure for RRIRQRPPRLPRPRPRPCGTPRP is 0.0105. As to RRIRYRPPRLPRPRPRPNPPPRP, the “shrunken log2 fold change” value was 0.0395. Regarding RRIRCRPPRLPRPRPRPMWKPRP, the “shrunken log2 fold change” value was -0.0547.

Consider RRIRYRPPRLPRPRPRPKTPPRP, for which the “shrunken log2 fold change” value worked out at 0.103. Take RRIRCRPPRLPRPRPRPLPLPRP: the “shrunken log2 fold change” value was -0.0103.

RRIRDRPPRLPRPRPRPVEFPRP: the “shrunken log2 fold change” value was -0.0374. For RRIRARPPRLPRPRPRPMWNPRP, the “shrunken log2 fold change” value was -0.342. The figure for RRIRMRPPRLPRPRPRPRYPPRP is 0.0438; for RRIRTRPPRLPRPRPRPTLNPRP it is 0.569.

As for RRIRGRPPRLPRPRPRPAGMPRP, the “shrunken log2 fold change” value came out at 0.737. RRIRDRPPRLPRPRPRPNHLPRP: the “shrunken log2 fold change” value is 0.000895. Take RRIRKRPPRLPRPRPRPMKKPRP: the “shrunken log2 fold change” value stood at 0.172. The figure for RRIRYRPPRLPRPRPRPIQRPRP is -0.00865.
